Test results as given in article PMC5523955.

Target: NCP^H2AK15ub (nucleosome core particle with linked H2A-H2B enzymatically ubiquitylated at H2A Lys15) (human) (UniProt P0CG47)
Assay: ITC

Kd: 25.2 nM
Substance: RAD18 (aa 198-240) (from UniProt Q9NS91 198-240) (domain or fragment)
